According to patent US20250154283A1 (published 2025):

B1: Lib6_P3_A1_scFv (scFv)
scFv: QVQLVQSGAEVKKPGASVKVSCKVSGDTLSNYAIHWVRQAPGKGLEWMGGINPNAGTTIYAQKFQGRVTMTEDTSTDTAYMELSSLKSEDTAVYYCARDSSSWCPVGYYYYYMDVWGKGTTVTVSSSGGSTITSYNVYYTKLSSSGTDIQMTQSPSSVSASVGDRVTITCRASQSIGDFLAWYQQKPGKAPKLLIYDASHLQTGVPSRFSGSGSGTDFTLTISSLQPEDFANYYCQQTSTIPPTFGGGTKVEIK
notes: VH-linker-VL; not shown: C-terminal 3xFLAG and SV5 tags
B2: Lib6_P3_E10_scFv (scFv)
scFv: B1 scFv
notes: as for B1
B3: Lib4_P2_B1_scFv (scFv)
scFv: B1 scFv
notes: as for B1
B4: Lib4_P2_A2_scFv (scFv)
scFv: B1 scFv
notes: as for B1
B5: 965_Lib4_scFv (scFv)
scFv: QVQLQESGPGLVKPSQTLSLTCTVSGASFGDNYWSWIRQPPGKGLEWIGYIDTSGSSDYNPSLKSRVTMSVDTSKNQFSLKVNSVTAADTAVYYCARDALGYYYMDVWGKGTTVTVSSSGGSTITSYNVYYTKLSSSGTEIVMTQSPATLSLSPGERATLSCRASQGISGRLAWYQQKPGQAPRLLIYDASARASGIPARFSGSGSGTDFTLTISSLEPEDFAVYYCQQYGTSPYTFGGGTKVEIK
notes: as for B1
B6: 256_Lib8_scFv (scFv)
scFv: EVQLVESGGGLVQPGRSLRLSCAASGFTVSSNAMHWVRQAPGKGLEWVSAIGTFADTDYADSVEGRFTISRDNAKNSLYLQMNSLRAEDTAVYYCAREGAAAGTNFDYWGQGTLVTVSSSGGSTITSYNVYYTKLSSSGTDIQMTQSPSSLSASVGDRVTITCRASQGIRSYLAWYQQKPGKAPKLLIYGASTLEGGVPSRFSGSGSGTDFTLTISSLQPEDVATYYCQQSYSTPPKFGGGTKVEIK
notes: as for B1
B7: Lib4_P2_A3_scFv (scFv)
scFv: QVQLQESGPGLVKPSQTLSLTCTVSGVSLSTSDYSWSWIRQPPGKGLEWIGYISPPGRSDYNPSLKSRVTMSVDTSKNQFSLKVNSVTAADTAVYYCARHSSSGWYSTYDFDSWGQGTMVTVSSSGGSTITSYNVYYTKLSSSGTEIVMTQSPATLSLSPGERATLSCRASQNIHSNLAWYQQKPGQAPRLLIYGATTRATGIPARFSGSGSGTDFTLTISSLEPEDFAVYYCQQSYTTPLTFGGGTKVEIK
notes: as for B1
B8: Lib6_P3_A8_scFv (scFv)
scFv: EVQLVQSGAEVKKPGASVKVSCKASGYRFTNYDISWVRQAPGQGLEWMGGINPSSGITIYAQKLQGRGTMTTDPSTSTAYMELRSLRSDDTAVYYCARGAAYGDYLDYWGQGTLVTVSSSGGSTITSYNVYYTKLSSSGTESALTQPASVSGSPGQSITISCTGTNLGEKYVSWYQQHPGKAPKLMIYSTSQRPSGVSNRFSGSKSGNTASLTITGLQAEDEADYYCSSYTASSTPGLVFGGGTKLTVL
notes: as for B1
B9: 399_Lib1_scFv (scFv)
scFv: QVQLVQSGAEVKKPGASVKVSCKVSGITFTSDYIHWVRQAPGKGLEWMGGMNPYSNKAIYAQKFQGRVTMTEDTSTDTAYMELSSLKSEDTAVYYCATGGLRIAARTSYFDYWGQGTLVTVSSSGGSTITSYNVYYTKLSSSGTDIQMTQSPSSVSASVGDRVTITCRASMDIAGSLAWYQQKPGKAPKLLIYDTSFRATGVPSRFSGSGSGTDFTLTISSLQPEDFANYYCQQYDNPPRLTFGGGTKVEIK
notes: as for B1
B10: 27_Lib4_scFv (scFv)
scFv: QVQLQESGPGLVKPSQTLSLTCTVSGASFGDHYWSWIRQPPGKGLEWIGYIDATGSIDYNPSLKSRVTMSVDTSKNQFSLKVNSVTAADTAVYYCARVASYYYYMDVWGKGTTVTVSSSGGSTITSYNVYYTKLSSSGTEIVMTQSPATLSLSPGERATLSCRASQSITGSYLAWYQQKPGQAPRLLIYGASDRAPGIPARFSGSGSGTDFTLTISSLEPEDFAVYYCQQYGSFPYTFGGGTKVEIK
notes: as for B1
B11: Lib6_P3_B9_scFv (scFv)
scFv: EVQLVQSGAEVKKPGASVKVSCKASGDTFSSHVISWVRQAPGQGLEWMGGINPRTGTTIYAQKLQGRGTMTTDPSTSTAYMELRSLRSDDTAVYYCARTRPWAGLDVWGQGTTVTVSSSGGSTITSYNVYYTKLSSSGTESALTQPASVSGSPGQSITISCTGTNIEYKGVSWYQQHPGKAPKLMIYGVDKRPSGVSNRFSGSKSGNTASLTISGLQAEDEADYYCQAWGTSTAIFGGGTKLTVL
notes: as for B1
B12: 96_Lib4_scFv (scFv)
scFv: QVQLQESGPGLVKPSQTLSLTCTVSGESFSTSYWSWIRQPPGKGLEWIGYITHSGYTDYNPSLKSRVTMSVDTSKNQFSLKVNSVTAADTAVYYCARGGRFPFWYFDLWGRGSLVTVSSSGGSTITSYNVYYTKLSSSGTEIVMTQSPATLSLSPGERATLSCRASRSIGSNLAWYQQKPGQAPRLLIYGATTRATGIPARFSGSGSGTDFTLTISSLEPEDFAVYYCQQYKNDATFGGGTKVEIK
notes: as for B1
B13: 4956_Lib1_scFv (scFv)
scFv: QVQLVQSGAEVKKPGASVKVSCKVSGYTLTSNYIHWVRQAPGKGLEWMGGFNPSSGSTIYAQKFQGRVTMTEDTSTDTAYMELSSLKSEDTAVYYCARTLYDFWSGYLDAFDIWGQGTMVTVSSSGGSTITSYNVYYTKLSSSGTDIQMTQSPSSVSASVGDRVTITCRASQNIRSSLAWYQQKPGKAPKLLIYAASNLEPGVPSRFSGSGSGTDFTLTISSLQPEDFANYYCQQYEDTPLTFGGGTKVEIK
notes: as for B1
B14: 11485_Lib1_scFv (scFv)
scFv: QVQLVQSGAEVKKPGASVKVSCKVSGAPSAAIIHWVRQAPGKGLEWMGGFTQIFGTAIYAQKFQGRVTMTEDTSTDTAYMELSSLKSEDTAVYYCAREGIGGHDAFDIWGQGTMVTVSSSGGSTITSYNVYYTKLSSSGTDIQMTQSPSSVSASVGDRVTITCRASQDISKNLAWYQQKPGKAPKLLIYKASKLESGVPSRFSGSGSGTDFTLTISSLQPEDFANYYCLHDYTYPPTFGGGTKVEIK
notes: as for B1
B15: Lib4_P2_A10_scFv (scFv)
scFv: QVQLQESGPGLVKPSQTLSLTCTVSGASLGHQYWSWIRQPPGKGLEWIGYIDTSGSTDYNPSLKSRVTMSVDTSKNQFSLKVNSVTAADTAVYYCARVANYYYYMDVWGKGTTVTVSSSGGSTITSYNVYYTKLSSSGTEIVMTQSPATLSLSPGERATLSCRASQSVSNRLAWYQQKPGQAPRLLIYDASNRATGIPARFSGSGSGTDFTLTISSLEPEDFAVYYCQQYFITPSTFGGGTKVEIK
notes: as for B1
B16: 487_Lib1_scFv (scFv)
scFv: QVQLVQSGAEVKKPGASVKVSCKVSGYTFTSHIIHWVRQAPGKGLEWMGGMNPYSNKAIYAQKFQGRVTMTEDTSTDTAYMELSSLKSEDTAVYYCARDASDYGDYGYYYYYMDVWGKGTTVTVSSSGGSTITSYNVYYTKLSSSGTDIQMTQSPSSVSASVGDRVTITCRASQSIGDFLAWYQQKPGKAPKLLIYDASHLQTGVPSRFSGSGSGTDFTLTISSLQPEDFANYYCQQTSTIPPTFGGGTKVEIK
notes: as for B1
B17: 4035_Lib1_scFv (scFv)
scFv: QVQLVQSGAEVKKPGASVKVSCKVSGYAFPSYGIHWVRQAPGKGLEWMGGISAFTGDTIYAQKFQGRVTMTEDTSTDTAYMELSSLKSEDTAVYYCASGPTNVLTGLMESAEYFQHWGQGTLVTVSSSGGSTITSYNVYYTKLSSSGTDIQMTQSPSSVSASVGDRVTITCRASQGISRDLAWYQQKPGKAPKLLIYGASGRATGVPSRFSGSGSGTDFTLTISSLQPEDFANYYCQQSYITPTTFGGGTKVEIK
notes: as for B1
B18: 2301_Lib4_scFv (scFv)
scFv: QVQLQESGPGLVKPSQTLSLTCTVSGASISTSDHSWSWIRQPPGKGLEWIGYIRDTGSTDYNPSLKSRVTMSVDTSKNQFSLKVNSVTAADTAVYYCAISSTERWKQSFGVDTEYFQHWGQGTLVTVSSSGGSTITSYNVYYTKLSSSGTEIVMTQSPATLSLSPGERATLSCRASRYVSTNLAWYQQKPGQAPRLLIYDAVTRAPGIPARFSGSGSGTDFTLTISSLEPEDFAVYYCQQYHSLPLIFGGGTKVEIK
notes: as for B1

Tests used:
[1] = molecular target: T1, biotinylated human VWF cysteine knot (CK) domain construct (human, UniProt P04275 2724-2813, biotinylated in vitro (BirA) on the biotinylation tag; one N-glycan); assay: SPR, scFv captured via anti-SV5, CK domain injected, pH 5.5, apparent Kd;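 further: scFvs from crude yeast supernatants captured on chip-bound anti-SV5 antibody, Kd computed as koff divided by kon, dimeric CK construct likely makes affinity appear higher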
T1 construct: Expressed in HEK293 EBNA cells; disulfide-linked homodimer; also called human VWF CK; human VWF CK domain; not shown: in vitro biotinylation tag, HRV-3C site and 3 VWF residues before the CK domain

[2] = molecular target: T1, biotinylated human VWF cysteine knot …; assay: SPR, scFv captured via anti-SV5, CK domain injected, pH 7.4, apparent Kd;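 further: scFvs from crude yeast supernatants printed on an amine-coupled anti-SV5 lawn, Kd computed as koff over kon, likely overestimating affinity because the CK construct is dimeric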
[3] = molecular target: T2, biotinylated cynomolgus monkey VWF cysteine knot (CK) domain construct (cynomolgus monkey, biotinylated in vitro (BirA) on the biotinylation tag; one N-glycan); assay: as above
T2 construct: Expressed in HEK293 EBNA cells; disulfide-linked homodimer; also called cyno VWF CK; cyno VWF CK domain; not shown: in vitro biotinylation tag, HRV-3C site and 3 VWF residues before the CK domain
T2 chain: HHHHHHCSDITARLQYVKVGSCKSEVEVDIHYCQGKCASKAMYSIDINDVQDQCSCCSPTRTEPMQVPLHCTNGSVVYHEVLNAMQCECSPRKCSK

Binder	Kd [1]	Kd [2]	Kd [3]
B1	1.32 nM	1.41 nM	0.017 nM
B2	0.659 nM	1.72 nM	1.96 nM
B3	2.12 nM	1.89 nM	0.48 nM
B4	0.604 nM	2.05 nM	0.305 nM
B5	0.621 nM	2.79 nM	1.17 nM
B6	0.731 nM	1.76 nM	0.758 nM
B7	1.93 nM	1.48 nM	0.387 nM
B8	0.872 nM	2.72 nM	0.435 nM
B9	0.127 nM	2.62 nM	2.05 nM
B10	0.443 nM	2.85 nM	0.656 nM
B11	1.22 nM	1.41 nM	1.03 nM
B12	1.4 nM	1.77 nM	1.21 nM
B13	1.91 nM	2.22 nM	1.36 nM
B14	1.82 nM	2.22 nM	3.16 nM
B15	3.36 nM	2.7 nM	0.733 nM
B16	0.829 nM	1.5 nM	1.51 nM
B17	1.41 nM	1.76 nM	0.974 nM
B18	3.87 nM	1.84 nM	0.803 nM
